We go through one molecule from patent US20180094060A1 (PIERRE FABRE MEDICAMENT, published 2018).

This test addresses T1, recombinant human insulin receptor (human, UniProt P06213-2 28-944, limits assumed).
T1 construct: ELISA coating protein; also called rhIR; human IR
As to the kind of experiment: direct ELISA, coated protein 1 µg/ml, hybridoma supernatant. On the procedure:
Further characterizations of 810D12 antibody were then performed using hybridoma supernatants such as rhIGF-1R or rmIGF-1R or rhIR ELISA. In all direct ELISAs, proteins of interest were immobilized (1 μg/ml) to the bottom of each well. After saturation, hybridoma supernatants were added to the wells. After a 1-hour incubation period and a washing step, a solution of goat anti-mouse IgG-HRP labelled polyclonal antibody was used for detection, prior to the addition of the TMB substrate. The reaction was stopped with a 1M H₂SO₄ solution before reading the OD with a spectrophotometer at a 450 nm wavelength.

T1 sequence (P06213 other isoform, or with tags, fused parts or gaps limits assumed): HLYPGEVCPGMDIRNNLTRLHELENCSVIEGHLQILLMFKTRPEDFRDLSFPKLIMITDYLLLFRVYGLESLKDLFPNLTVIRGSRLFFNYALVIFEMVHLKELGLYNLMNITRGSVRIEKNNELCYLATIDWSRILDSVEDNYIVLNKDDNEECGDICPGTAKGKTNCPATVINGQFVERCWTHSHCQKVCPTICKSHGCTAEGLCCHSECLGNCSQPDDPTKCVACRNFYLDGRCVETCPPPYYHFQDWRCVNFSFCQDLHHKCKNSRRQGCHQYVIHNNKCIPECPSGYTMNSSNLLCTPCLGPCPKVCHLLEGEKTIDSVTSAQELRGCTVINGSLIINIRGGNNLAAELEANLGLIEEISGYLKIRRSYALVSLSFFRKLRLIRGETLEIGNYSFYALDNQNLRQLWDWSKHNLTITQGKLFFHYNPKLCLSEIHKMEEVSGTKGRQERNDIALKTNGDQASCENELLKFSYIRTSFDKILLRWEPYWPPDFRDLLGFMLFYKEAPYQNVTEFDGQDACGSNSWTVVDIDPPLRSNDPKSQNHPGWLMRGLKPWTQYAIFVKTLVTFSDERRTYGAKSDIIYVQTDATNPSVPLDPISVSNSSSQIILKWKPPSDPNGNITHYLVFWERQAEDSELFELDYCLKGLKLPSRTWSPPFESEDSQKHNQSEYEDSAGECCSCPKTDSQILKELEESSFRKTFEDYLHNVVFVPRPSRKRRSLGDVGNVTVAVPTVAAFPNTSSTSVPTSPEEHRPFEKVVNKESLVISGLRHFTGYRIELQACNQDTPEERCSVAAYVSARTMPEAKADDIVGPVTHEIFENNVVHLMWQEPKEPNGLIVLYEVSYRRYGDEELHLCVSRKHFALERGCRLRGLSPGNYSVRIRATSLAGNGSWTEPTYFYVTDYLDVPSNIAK

B1: 810D12 monoclonal antibody (secreted by hybridoma CNCM I-4893) (antibody, V domains shown)
VH: EVQLQQSGPELVKPGASVKMSCKASGHTFTSYMLHWVKQKPGQGLEWLGFINPYNDVTKYNENFKGKATLTSDKSSSTAYMELNSLTSEDSAVYFCVTTAYYGNGRYFDVWGAGTTVTVSS
VL: DIQMTQTTSSLSASLGDRVTISCRASQDITNYLTWYQQKPDGTVKVLIYYTSRLYSGVPSRFSGSGSGSDYSLTINNLEQEDIATYFCQQGYSLPWTFGGGTKLEIK
notes: Murine monoclonal antibody from a Balb/C hybridoma; The ELISAs used hybridoma supernatant; also called 810D12 antibody; 810D12I-4893
Consider B1, for which the binding result is given as “no binding (tested: 5 µg/ml)”.
